Experimental data published in US20240050475A1.

Biological target: human PRDX4 present on the cell surface of cancer cells (human) (UniProt Q13162)
Assay: flow cytometry on ES-2 cells, control staining

UniProt Q13162, sequence (Q13162 38-271 limits assumed): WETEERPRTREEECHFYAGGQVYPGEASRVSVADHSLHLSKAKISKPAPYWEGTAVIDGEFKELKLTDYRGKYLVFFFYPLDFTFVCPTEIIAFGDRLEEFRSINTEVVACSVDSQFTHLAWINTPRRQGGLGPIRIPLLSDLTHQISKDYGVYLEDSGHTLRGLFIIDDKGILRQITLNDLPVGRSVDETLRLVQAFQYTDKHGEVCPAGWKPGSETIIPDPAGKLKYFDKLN

Substance: isotype antibody
- mean (flow cytometry): 159
